Reference: patent publication US20230257479A1 (Genmab, published 2023)
Residue numbers refer to the chain shown, from its start. Names and notes keep the numbering of the source.

Columns and labels:
[1] = target: T1, human 5T4 with P326 mutated to alanine, on HEK293 cells (human, UniProt Q13641 32-420); test: alanine scanning, flow cytometry on HEK293 cells, normalised to bsIgG1-5T4-A1-F405Lxb12-FEAR-FITC
T1 sequence: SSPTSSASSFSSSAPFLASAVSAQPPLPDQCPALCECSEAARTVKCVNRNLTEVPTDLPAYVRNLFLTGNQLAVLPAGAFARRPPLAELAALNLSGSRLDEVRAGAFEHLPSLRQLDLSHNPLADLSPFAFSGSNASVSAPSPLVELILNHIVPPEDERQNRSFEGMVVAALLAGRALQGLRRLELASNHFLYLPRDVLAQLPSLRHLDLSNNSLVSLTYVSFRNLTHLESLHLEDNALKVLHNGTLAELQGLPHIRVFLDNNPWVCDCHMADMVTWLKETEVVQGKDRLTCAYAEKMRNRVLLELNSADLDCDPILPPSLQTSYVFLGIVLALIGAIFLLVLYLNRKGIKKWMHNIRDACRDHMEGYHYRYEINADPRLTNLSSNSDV

[2] = target: T2, human 5T4 with L309 mutated to alanine, on HEK293 cells (human, UniProt Q13641 32-420); test: as above
T2 sequence: T1 sequence with L278A, A295P

[3] = target: T3, human 5T4 with L281 mutated to alanine, on HEK293 cells (human, UniProt Q13641 32-420); test: as above
T3 sequence: T1 sequence with L250A, A295P

[4] = target: T4, human 5T4ECDHis (mature protein of SEQ ID NO: 99) (human, UniProt Q13641 32-355); test: BLI cross-block; competitor (immobilised): IgG1-5T4-207-FEAR
T4 construct: ECD of human 5T4 (aa 1-355 of Uniprot Q13641) with C-terminal His tag; residues 1-31 are the signal peptide; also called ECD of human 5T4 with a C-terminal His tag
T4 sequence: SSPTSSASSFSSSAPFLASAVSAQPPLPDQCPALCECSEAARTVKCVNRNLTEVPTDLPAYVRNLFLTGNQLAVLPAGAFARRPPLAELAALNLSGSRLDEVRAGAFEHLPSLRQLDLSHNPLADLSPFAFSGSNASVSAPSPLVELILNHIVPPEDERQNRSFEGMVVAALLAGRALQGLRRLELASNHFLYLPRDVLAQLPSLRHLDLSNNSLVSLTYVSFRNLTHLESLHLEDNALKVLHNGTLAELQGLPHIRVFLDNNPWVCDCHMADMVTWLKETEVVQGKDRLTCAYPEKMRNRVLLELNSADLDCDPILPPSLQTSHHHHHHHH

[5] = target: T5, full length human 5T4 (SEQ ID NO: 1) on cells (human, UniProt Q13641 32-420); test: flow cytometry, HEK-293 cells transfected with human 5T4, PE secondary [II)G]
T5 construct: Uniprot Q13641; residues 1-31 are the signal peptide; Used both for transfected HEK-293 cells and for 5T4-expressing human tumor cell lines
T5 sequence: T1 sequence with A295P

[6] = target: T4, human 5T4ECDHis (mature protein of SEQ …); test: BLI, antibody on anti-human IgG Fc Capture biosensor, antigen in solution; 50 s dissociation window
[7] = target: T4, human 5T4ECDHis (mature protein of SEQ …); test: BLI cross-block; competitor (immobilised): IgG1-5T4-226-FEAR
[8] = target: T4, human 5T4ECDHis (mature protein of SEQ …); test: BLI cross-block; competitor (immobilised): IgG1-5T4-085-FEAR
[9] = target: T4, human 5T4ECDHis (mature protein of SEQ …); test: BLI cross-block; competitor (immobilised): IgG1-5T4-059-FEAR
[10] = target: T4, human 5T4ECDHis (mature protein of SEQ …); test: BLI cross-block; competitor (immobilised): IgG1-5T4-A1-F405L
[11] = target: T5, full length human 5T4 (SEQ ID NO: 1) on …; test: flow cytometry, MDA-MB-231 cells, PE secondary [III)F]
[12] = target: T6, recombinant cynomolgus monkey 5T4 protein (Cusabio; cat. no. CSB-MP024093MOV) (cynomolgus monkey, UniProt Q4R8Y9 35-355); test: BLI, antibody on anti-human IgG Fc Capture biosensor, antigen in solution; 50 s dissociation window
T6 construct: extracellular domain; Bought protein; also called cynomolgus 5T4; cynomolgus monkey 5T4 extracellular domain
T6 sequence (looked up): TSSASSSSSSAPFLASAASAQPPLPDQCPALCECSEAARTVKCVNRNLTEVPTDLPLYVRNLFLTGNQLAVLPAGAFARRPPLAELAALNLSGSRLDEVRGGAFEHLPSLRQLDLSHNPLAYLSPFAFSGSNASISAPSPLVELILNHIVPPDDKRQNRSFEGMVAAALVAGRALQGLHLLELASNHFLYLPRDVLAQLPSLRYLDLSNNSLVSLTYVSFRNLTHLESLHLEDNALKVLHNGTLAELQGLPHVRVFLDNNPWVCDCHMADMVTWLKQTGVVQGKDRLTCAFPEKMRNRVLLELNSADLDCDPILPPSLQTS

[13] = target: T7, full length cynomolgus monkey 5T4 on transfected HEK-293 cells (cynomolgus monkey, UniProt Q4R8Y9 35-420); test: flow cytometry, HEK-293 cells transfected with cynomolgus monkey 5T4, PE secondary [II)G]
T7 construct: Uniprot Q4R8Y9; residues 1-34 are the signal peptide; also called cynomolgus 5T4
T7 sequence: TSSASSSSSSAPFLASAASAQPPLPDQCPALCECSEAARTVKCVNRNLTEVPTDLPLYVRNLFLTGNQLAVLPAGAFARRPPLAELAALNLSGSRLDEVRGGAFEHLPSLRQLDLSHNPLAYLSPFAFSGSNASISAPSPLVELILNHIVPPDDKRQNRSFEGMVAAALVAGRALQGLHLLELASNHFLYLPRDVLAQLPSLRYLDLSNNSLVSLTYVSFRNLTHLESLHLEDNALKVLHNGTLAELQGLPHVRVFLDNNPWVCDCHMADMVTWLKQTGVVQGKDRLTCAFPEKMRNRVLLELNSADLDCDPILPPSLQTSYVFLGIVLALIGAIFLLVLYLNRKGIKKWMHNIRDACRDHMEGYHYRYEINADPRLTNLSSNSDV

[14] = target: T4, human 5T4ECDHis (mature protein of SEQ …); test: BLI cross-block; competitor (immobilised): IgG1-5T4-106-FEAR
[15] = target: T4, human 5T4ECDHis (mature protein of SEQ …); test: BLI cross-block; competitor (immobilised): IgG1-5T4-127-FEAR
[16] = target: T4, human 5T4ECDHis (mature protein of SEQ …); test: BLI cross-block; competitor (immobilised): IgG1-5T4-076-FEAR
[17] = target: T4, human 5T4ECDHis (mature protein of SEQ …); test: BLI cross-block; competitor (immobilised): IgG1-5T4-A3-F405L
[18] = target: T4, human 5T4ECDHis (mature protein of SEQ …); test: BLI cross-block; competitor (immobilised): IgG1-5T4-H8-FEAR
[19] = target: T5, full length human 5T4 (SEQ ID NO: 1) on …; test: flow cytometry, HEK-293 cells transfected with human 5T4, PE secondary [II)F]
[20] = target: T7, full length cynomolgus monkey 5T4 on …; test: flow cytometry, HEK-293 cells transfected with cynomolgus monkey 5T4, PE secondary [II)F]

B1: bsIgG1-b12-FEALx5T4-226-FEAR-FITC (bispecific antibody, V domains shown)
VH 1: QVQLVQSGAEVKKPGASVKVSCQASGYRFSNFVIHWVRQAPGQRFEWMGWINPYNGNKEFSAKFQDRVTFTADTSANTAYMELRSLRSADTAVYYCARVGPYSWDDSPQDNYYMDVWGKGTTVIVSS
VL 1: EIVLTQSPGTLSLSPGERATFSCRSSHSIRSRRVAWYQHKPGQAPRLVIHGVSNRASGISDRFSGSGSGTDFTLTITRVEPEDFALYYCQVYGASSYTFGQGTKLERK
VH 2: QVQLQQWGAGLLKPSETLSLTCAVYGGSFSGYYWSWIRQPPGKGLEWIGEIDHSGSTNYNPSLKSRVTISVDTSKNQFSLKLSSVTAADTAVYYCAAWFGELWDYYYGMDVWGQGTTVTVSS
VL 2: EIVLTQSPATLSLSPGERATLSCRASQSVSSFLAWYQQKPGQAPRLLIYDASNRATGIPARFSGSGSGTDFTLTISSLEPEDFAVYYCQQRSNWPLTFGQGTRLEIK
notes: b12 arm IgG1 FEAL, 5T4 arm IgG1 FEAR
B1 was tested, and the “Z-score (fold change) of binding” value [1] was -1.67, the “Z-score (fold change) of binding” value [2] was -1.63 and the “Z-score (fold change) of binding” value [3] was -1.65.

B2: IgG1-5T4-127-FEAR (antibody, V domains shown)
VH: EVQLLESRGGLVQPGGSLRLSCAASGFTFSSYAMSWVRQAPGKGLEWVSTISGSGGSTYYADSVKGRFTISRDNSKKTLYLQMNSLRAEDTAVYYCAKDWGSGSYPAEYFQHWGQGTLVTVSS
VL: EIVLTQSPATLSLSPGERATLSCRASQSVSSYLAWYQQKPGQAPRLLIYDASNRATGIPARFSGSGSGTDFTLTISSLEPEDFAVYYCQQRSNWLMYTFGQGTKLEIK
notes: Monospecific, bivalent human IgG1 kappa with L234F, L235E, D265A, K409R (FEAR)
With B2 the corrected association response [4] was 1.29 nm, the “EC50 (read off the curve)” value [5] was roughly 0.03 µg/mL and the Kd [6] was 27 nM. For the same binder, the koff [6] was 0.016 s⁻¹, the kon [6] was 580000 M⁻¹ s⁻¹ and the corrected association response [7] was 1.51 nm. It also gave a corrected association response [8] of 0 nm, a corrected association response [9] of -0.1 nm and a corrected association response [10] of 0.87 nm. For the same binder, the “EC50 (read off the curve)” value [11] was roughly 0.03 µg/mL, the Kd [12] was 41 nM and the koff [12] was 0.015 s⁻¹. The kon [12] was 370000 M⁻¹ s⁻¹, the “EC50 (read off the curve)” value [13] was roughly 0.02 µg/mL and the corrected association response [14] was -0.02 nm. It also gave a corrected association response [15] of -0.01 nm, a corrected association response [16] of -0.02 nm and a corrected association response [17] of 0.01 nm. The corrected association response [18] was -0.01 nm.

B3: bsIgG1-huCD3-H101G-FEALx5T4-085-FEAR (bispecific antibody)
heavy: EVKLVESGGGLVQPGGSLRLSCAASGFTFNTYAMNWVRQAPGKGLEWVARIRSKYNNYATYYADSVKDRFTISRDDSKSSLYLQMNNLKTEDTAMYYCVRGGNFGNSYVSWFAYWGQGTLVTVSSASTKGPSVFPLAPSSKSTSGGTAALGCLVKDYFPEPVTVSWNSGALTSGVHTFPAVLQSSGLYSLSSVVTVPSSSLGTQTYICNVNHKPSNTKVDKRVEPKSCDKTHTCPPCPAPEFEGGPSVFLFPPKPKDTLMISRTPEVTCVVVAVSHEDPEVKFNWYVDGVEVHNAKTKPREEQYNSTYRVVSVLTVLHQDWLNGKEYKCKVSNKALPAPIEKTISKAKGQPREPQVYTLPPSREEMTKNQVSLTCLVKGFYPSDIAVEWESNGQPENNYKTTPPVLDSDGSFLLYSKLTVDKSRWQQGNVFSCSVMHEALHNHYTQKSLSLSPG
light: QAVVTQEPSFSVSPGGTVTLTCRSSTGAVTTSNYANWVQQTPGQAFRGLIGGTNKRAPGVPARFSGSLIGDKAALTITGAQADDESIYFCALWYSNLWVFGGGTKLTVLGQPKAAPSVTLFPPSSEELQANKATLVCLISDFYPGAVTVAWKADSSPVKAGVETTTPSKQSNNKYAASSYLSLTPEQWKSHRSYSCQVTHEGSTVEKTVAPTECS
VH: EVQLLESGGGLVQPGGSLRLSCAASGFTFSSYAMSWVRQAPGKGLEWVSAISGSGGSTYNADSVKGRFTIFRDNSKNTLYLHMNSLRAEDTAVYYCARDPGYNNVEYLDHWGQGTLVTVSS
VL: AIQLTQSPSSLSASVGDRVTITCRASQGISSALAWYQQKPGKAPKLLIYDASSLESGVPSRFSGSGSGTDFTLTISSLQPEDFATYYCQQFNSYPLTFGGGTKVEIK
notes: Fab-arm exchange product
In the case of B3, the “EC50 (read off the curve)” value [19] is reported as roughly 0.5 µg/mL and the “EC50 (read off the curve)” value [20] is reported as roughly 0.4 µg/mL.
